Data from publication PMC3222294.

Molecular target: T1, RIG-I (ΔCARDs) (human, UniProt O95786 230-925, del1-229)
T1 sequence: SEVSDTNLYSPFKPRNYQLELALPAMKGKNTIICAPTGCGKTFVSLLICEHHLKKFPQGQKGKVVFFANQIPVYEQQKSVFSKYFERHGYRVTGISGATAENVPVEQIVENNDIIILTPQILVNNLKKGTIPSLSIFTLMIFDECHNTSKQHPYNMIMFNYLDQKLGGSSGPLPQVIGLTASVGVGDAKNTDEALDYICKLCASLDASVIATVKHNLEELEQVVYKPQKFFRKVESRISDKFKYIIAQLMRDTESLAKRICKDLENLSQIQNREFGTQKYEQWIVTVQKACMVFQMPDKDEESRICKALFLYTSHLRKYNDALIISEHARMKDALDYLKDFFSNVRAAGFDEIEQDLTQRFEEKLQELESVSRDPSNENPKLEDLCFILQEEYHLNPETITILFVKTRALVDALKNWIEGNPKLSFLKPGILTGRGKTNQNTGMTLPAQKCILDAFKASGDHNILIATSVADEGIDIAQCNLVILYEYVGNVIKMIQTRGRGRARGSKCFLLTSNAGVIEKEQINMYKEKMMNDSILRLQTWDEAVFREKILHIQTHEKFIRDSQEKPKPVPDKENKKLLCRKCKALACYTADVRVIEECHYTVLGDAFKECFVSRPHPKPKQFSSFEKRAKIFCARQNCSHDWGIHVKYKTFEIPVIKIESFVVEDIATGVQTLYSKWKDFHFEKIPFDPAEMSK
Test: X-ray crystallography

B1: dsRNA10 (5'OH palindromic 10-mer duplex) (dsRNA)
RNA 1: GCGCGCGCGC
RNA 2: GCGCGCGCGC
  binding result: binds
